Test results reported in PMC11296239.

T1: RORα (mouse, UniProt P51448 1-523)
T1 sequence: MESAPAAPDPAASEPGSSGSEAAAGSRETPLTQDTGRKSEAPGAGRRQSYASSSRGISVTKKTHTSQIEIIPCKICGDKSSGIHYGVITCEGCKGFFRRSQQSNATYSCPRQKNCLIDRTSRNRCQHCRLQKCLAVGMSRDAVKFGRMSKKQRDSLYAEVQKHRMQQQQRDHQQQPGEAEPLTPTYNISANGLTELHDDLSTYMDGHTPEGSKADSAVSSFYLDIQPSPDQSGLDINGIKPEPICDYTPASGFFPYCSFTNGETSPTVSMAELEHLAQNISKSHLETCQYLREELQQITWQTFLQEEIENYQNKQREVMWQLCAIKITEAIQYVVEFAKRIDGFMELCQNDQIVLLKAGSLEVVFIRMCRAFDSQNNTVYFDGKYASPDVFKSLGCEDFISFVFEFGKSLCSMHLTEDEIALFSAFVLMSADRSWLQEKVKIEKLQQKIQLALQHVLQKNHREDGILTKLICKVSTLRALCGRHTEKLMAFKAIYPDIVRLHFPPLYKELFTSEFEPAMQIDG

T2: Rev-erbα (mouse, UniProt Q3UV55 1-615)
T2 sequence: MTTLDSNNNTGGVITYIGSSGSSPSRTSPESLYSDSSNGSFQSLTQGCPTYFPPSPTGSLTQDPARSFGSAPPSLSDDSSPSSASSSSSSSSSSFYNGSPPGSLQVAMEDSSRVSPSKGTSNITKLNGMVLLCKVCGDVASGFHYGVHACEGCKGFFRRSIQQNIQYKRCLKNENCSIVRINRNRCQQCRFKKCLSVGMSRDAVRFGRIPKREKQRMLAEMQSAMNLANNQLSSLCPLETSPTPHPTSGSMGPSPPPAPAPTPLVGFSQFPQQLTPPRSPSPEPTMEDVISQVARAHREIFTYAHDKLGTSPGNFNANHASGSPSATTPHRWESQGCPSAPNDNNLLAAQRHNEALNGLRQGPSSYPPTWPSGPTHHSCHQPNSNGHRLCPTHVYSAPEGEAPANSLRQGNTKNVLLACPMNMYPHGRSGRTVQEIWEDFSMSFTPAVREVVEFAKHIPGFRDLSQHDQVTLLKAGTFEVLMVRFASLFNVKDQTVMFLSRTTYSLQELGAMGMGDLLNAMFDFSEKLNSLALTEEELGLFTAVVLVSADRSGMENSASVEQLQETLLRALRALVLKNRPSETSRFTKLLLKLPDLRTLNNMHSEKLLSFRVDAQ


Tests used:
RORα = target: T1, RORα; assay: EMSA
Rev-erbα = target: T2, Rev-erbα; assay: EMSA

Binder	binding result (RORα)	binding result (Rev-erbα)
mut h-RRE2 (dsDNA) DNA 1: TCACCTGCTTGACGGCTTGACAGACCG DNA 2: CGGTCTGTCAAGCCGTCAAGCAGGTGA	no binding	no binding
mut h-RRE1 (dsDNA) DNA 1: TTCCTCAACAGCCGATACATTGTTTC DNA 2: GAAACAATGTATCGGCTGTTGAGGAA	no binding	no binding
